# Results taken from patent publication US7422862B2, “Methods for identifying modulators of apoptosis” (The Burnham Institute, priority 2001, dated 2008).
# No end group written: not given here.
# Key:
# [1] = target: Bcl-XL (Homo sapiens, UniProt Q07817); experiment: Fluorescence polarization assay, Bcl-XL specificity control; type: binding
# [2] = target: T1, BaxΔTM (Homo sapiens, UniProt Q07812); experiment: Co-immunoprecipitation of BaxΔTM with GFP-TM(Bax); type: binding; conditions: lysates pre-incubated with peptide
# T1 construct: a C-terminally truncated Bax protein (residues 1-169) (BaxΔTM); expressed in transfected cells; host or cells: HEK293T (lysates mixed in vitro)
# T1 sequence (Q07812 1-169, stated change not applied): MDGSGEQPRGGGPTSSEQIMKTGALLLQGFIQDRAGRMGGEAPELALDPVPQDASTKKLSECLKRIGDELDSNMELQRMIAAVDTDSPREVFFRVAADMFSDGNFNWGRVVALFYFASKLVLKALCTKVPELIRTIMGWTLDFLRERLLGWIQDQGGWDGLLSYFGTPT
# T1 sequence (Q07812 170-192 partner limits assumed): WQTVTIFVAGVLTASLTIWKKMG
# Experimental: (§1) (A-B) Humanin peptide prevents STS-induced Bax translocation in vivo. Cos-7 cells were first transfected with GFP-Bax plasmids. After 24 hrs, untagged wild-type or C8P mutant Humanin peptides were introduced into cells using ChariotTM reagent, and 2 h later cells were treated with 1 μM STS. After 4 h, the percentage of cells with translocated Bax was determined (mean±SD; n=3) by confocal microscopy (A) and representative photomicrographs (B). (C) Wild-type or C8P mutant Humanin peptides were introduced into Cos7 cells using ChariotTM reagent. Cytosolic (C) and mitochondria-containing (M) fractions were isolated by differential centrifugation 23 and analyzed by immunoblotting using anti-Bax (top), Hsp60 (middle) (mitochondrial marker), or Tubulin (bottom) (cytosol marker) antibodies. (D) HN or mutant control double-strand siRNAs were transfected into SF268 cells. After 48 h, cells were cultured without (Control) or with 0.1 uM STS. After 24 hr, cells were fractionated and analyzed by immunoblotting as above. (E) Isolated mitochondria were mixed with 400 ng Bax protein, with or without preincubating Bax with 100 uM Humanin or Humanin(C8P) peptides for 10 min. After 3 h at 30° C., mitochondria were centrifuged and the resulting pellets (P) and supernatants (S) were analyzed by immunoblotting using anti-Cytochrome c (top), Hsp60 (middle), and Bax (bottom) antibodies. […]
# [3] = target: T2, purified recombinant Bax (Homo sapiens, UniProt Q07812); experiment: Isolated mitochondria: Bax association and cytochrome c release assay; type: biochemical; conditions: 100 μM peptide preincubated with Bax, HCT116 mitochondria
# T2 sequence (Q07812 whole entry): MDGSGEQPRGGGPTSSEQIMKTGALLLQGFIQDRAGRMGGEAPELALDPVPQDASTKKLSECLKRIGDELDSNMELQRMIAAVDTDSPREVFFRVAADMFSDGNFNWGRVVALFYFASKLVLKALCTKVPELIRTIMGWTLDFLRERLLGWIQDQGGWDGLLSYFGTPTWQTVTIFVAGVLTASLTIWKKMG
# Experimental: (A-B) Humanin peptide prevents STS-induced Bax translocation in vivo. Cos-7 cells were first transfected with GFP-Bax plasmids. After 24 hrs, untagged wild-type or C8P mutant Humanin peptides were introduced into cells using ChariotTM reagent, and 2 h later cells were treated with 1 μM STS. After 4 h, the percentage of cells with translocated Bax was determined (mean±SD; n=3) by confocal microscopy (A) and representative photomicrographs (B). (C) Wild-type or C8P mutant Humanin peptides were introduced into Cos7 cells using ChariotTM reagent. Cytosolic (C) and mitochondria-containing (M) fractions were isolated by differential centrifugation 23 and analyzed by immunoblotting using anti-Bax (top), Hsp60 (middle) (mitochondrial marker), or Tubulin (bottom) (cytosol marker) antibodies. (D) HN or mutant control double-strand siRNAs were transfected into SF268 cells. After 48 h, cells were cultured without (Control) or with 0.1 uM STS. After 24 hr, cells were fractionated and analyzed by immunoblotting as above. (E) Isolated mitochondria were mixed with 400 ng Bax protein, with or without preincubating Bax with 100 uM Humanin or Humanin(C8P) peptides for 10 min. After 3 h at 30° C., mitochondria were centrifuged and the resulting pellets (P) and supernatants (S) were analyzed by immunoblotting using anti-Cytochrome c (top), Hsp60 (middle), and Bax (bottom) antibodies. (F) HN peptide enforces the interaction of Bax TM domain with Bax.TM. Lysates from HEK293T cells expressing Flag-Bax.TM were pretreated with or without Humanin or Humanin(C8P) peptides. Lysates were then mixed in vitro with lysates of HEK293T cells expressing GFP-TM(Bax). Immunoprecipitations were performed with anti-Flag antibody, analyzing lysates and immunoprecipitates (IP) by immunoblotting using monoclonal anti-GFP antibody.
# To determine whether Humanin can act directly on Bax, the effects of Humanin on isolated mitochondria were tested. Addition of recombinant purified Bax protein to mitochondria in vitro induces cytochrome c release (Jurgensmeier et al., Proc. Natl. Acad. Sci. USA 95:4997-5002 (1998)). […] Therefore Humanin can directly suppress Bax targeting to mitochondria, without requirement for intact cells.
# Cytochrome c release assays were performed as follows. Mitochondria were isolated from HCT116 cells by differential centrifugation as described above. Purified recombinant human Bax protein (400 ng for each sample) was pre-incubated with or without 100 μM synthetic Humanin peptide or mutant Humanin (C8P) peptide for 10 min at 4° C. The untreated or peptide pre-treated Baxprotein samples were then mixed with equal amount of HCT116 mitochondria (in a volume of 40 μl) at 30° C. for 3 hours. […]
# [4] = test system: Bax; experiment: Bax-induced lethality in yeast; type: cell-based, S. cerevisiae; conditions: TAD-fusion polypeptide, galactose-induced Bax
# [5] = test system: endogenous Bax protein; experiment: Subcellular fractionation and immunoblot of endogenous Bax after STS; type: cell-based; conditions: Cos7 cells, untagged peptides, STS
# Experimental: as §1, with “(E) Isolated mitochondria were mixed with 400 ng Bax protein, with or without preincubating Bax with 100 uM Humanin or Humanin(C8P) peptides for 10 min.” left out
# These findings were also confirmed by subcellular fractionation, where cytosol and mitochondria-enriched heavy membrane preparations were prepared from Cos7 cells transduced with untagged Humanin or Humanin(C8P) peptides, and the relative amounts of endogenous Bax protein in these two fractions were measured by immunoblot analysis of samples normalized for cell-equivalents. […] Differences in the relative potency of Humanin at blocking Bax translocation as measured by microscopy (FIG. 7A) versus cell fractionation methods (FIG. 7C) can be explained by differences in the sensitivity of the assays, or could possibly indicate that even in cells where some Bax translocation has occurred, less of the total Bax protein associated with mitochondria. […]
# [6] = target: T3, GFP-Bax (Homo sapiens, UniProt Q07812); experiment: STS-induced GFP-Bax translocation to mitochondria in Cos7 cells (confocal microscopy); type: cell-based; conditions: peptide transduced with Chariot, 1 μM STS
# T3 construct: expressed in transfected cells; host or cells: Cos-7
# T3 sequence (Q07812 whole entry): as above
# Experimental: as §1
# [7] = target: T2, purified recombinant Bax; experiment: Fluorescence polarization assay (FPA) of rhodamine-labelled peptide binding to Bax; design: full-length Bax protein was produced in bacteria and purified; made in house; host or cells: E. coli BL21; conditions: rhodamine-labelled control peptides
# Experimental: (C) The affinity (Kd) of Bax/HN interaction was measured by fluorescence polarization assay, using various concentrations of purified recombinant Bax and 40 nM rhodamine-conjugated HN peptide. Control peptide from CD40 is also shown (mean +Std Dev; n=3).
# In this example, the in vitro binding assay is a fluorescence polarization assay (FPA). For this experiment, full-length Bax protein was produced in bacteria and purified. Various concentrations of Bax protein were incubated with 40 nM of rhodamine-conjugated synthetic purified Humanin peptide. The extent of peptide binding was then monitored by measuring polarization of monochromatic light passed through the sample, where peptide binding to the bulkier protein slows the rate of peptide tumbling in solution, enhancing the polarization effect.
# Fluorescence Polarization Assays were performed as follows. Recombinant Bax protein was isolated from E. coli BL21 harboring pTYB1-Bax essentially as described (Suzuki et al., Cell 103:645-654 (2000)). For fluorescence polarization assays (FPA), various concentrations of Bax protein were incubated with 40 nM of rhodamine-conjugated synthetic purified Humanin peptide dissolved in water for 30 minutes in dark. Fluorescence polarization was measured using an AnalystTM AD Assay Detection System (LJL Biosystem, Sunnyvale, Calif.).
# Sequence of Bcl-XL (Q07817 whole entry, species assumed): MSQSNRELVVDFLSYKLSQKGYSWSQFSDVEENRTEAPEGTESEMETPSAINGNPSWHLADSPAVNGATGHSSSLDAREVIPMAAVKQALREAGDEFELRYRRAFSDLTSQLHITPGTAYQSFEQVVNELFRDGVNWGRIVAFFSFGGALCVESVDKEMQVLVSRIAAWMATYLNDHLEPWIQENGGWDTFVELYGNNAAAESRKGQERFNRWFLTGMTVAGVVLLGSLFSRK
molecule,measurement,setting,value
CC[C@H](C)[C@H](NC(=O)[C@H](CCC(=O)O)NC(=O)[C@H](CO)NC(=O)[C@@H](NC(=O)[C@H](CC(C)C)NC(=O)[C@H](CC(C)C)NC(=O)[C@H](CC(C)C)NC(=O)[C@H](CC(C)C)NC(=O)[C@H](CS)NC(=O)[C@H](CO)NC(=O)[C@H](Cc1ccccc1)NC(=O)CNC(=O)[C@H](CCCNC(=N)N)NC(=O)[C@@H]1CCCN1C(=O)[C@H](C)NC(=O)[C@H](CCSC)NC(=O)CCCCCNC(=O)c1ccccc1-c1c2ccc(=[N+](CC)CC)cc-2oc2cc(N(CC)CC)ccc12)[C@@H](C)O)C(=O)N[C@@H](CC(=O)O)C(=O)N[C@@H](CC(C)C)C(=O)N1CCC[C@H]1C(=O)N[C@H](C(=O)N[C@@H](CCCCN)C(=O)N[C@@H](CCCNC(=N)N)C(=O)N[C@@H](CCCNC(=N)N)C(=O)N[C@@H](C)C(N)=O)C(C)C [rhodamine-HN],binding to Bcl-XL in fluorescence polarization assay,[1],did not bind
"Humanin(C8P): synthetic Humanin peptide (or TAD-fusion in yeast) with C8P mutation, non-Bax-binding (MAPRGFSPLLLLTSEIDLPVKRRA; UniProt Q8IVG9 1-24, looked up, variant C8P)",interaction of BaxΔTM with GFP-TM,[2],did not promote
same,Bax association with mitochondria,[3],did not interfere
same,cytochrome c release,[3],did not interfere
same,rescue of yeast from Bax-induced lethality,[4],did not rescue
same,Bax translocation by subcellular fractionation,[5],no effect
same,suppression of GFP-Bax translocation,[6],not
"rhodamine-CD40: rhodamine-labelled control peptide from CD40 (residue 250P to 266G) (PVQETLHGCQPVTQEDG; also: rhodamine label; UniProt P25942 250-266, looked up, fragment)",interaction with Bax in fluorescence polarization assay,[7],did not display interactions
